Experimental data as given in publication PMC8464030.

Experiments:
DRH-3 CTD = molecular target: T1, DRH-3 CTD (Caenorhabditis elegans, UniProt Q93413 940-1108); assay: crystal structure
T1 sequence: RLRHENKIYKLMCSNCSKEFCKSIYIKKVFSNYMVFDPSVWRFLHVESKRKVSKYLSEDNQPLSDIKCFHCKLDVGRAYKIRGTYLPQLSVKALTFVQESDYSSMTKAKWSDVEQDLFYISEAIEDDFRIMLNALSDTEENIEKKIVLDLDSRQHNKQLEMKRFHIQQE

DRH-3 full length [1] = molecular target: T2, DRH-3 full length (Caenorhabditis elegans, UniProt Q93413 1-1119); assay: size-exclusion chromatography
T2 sequence: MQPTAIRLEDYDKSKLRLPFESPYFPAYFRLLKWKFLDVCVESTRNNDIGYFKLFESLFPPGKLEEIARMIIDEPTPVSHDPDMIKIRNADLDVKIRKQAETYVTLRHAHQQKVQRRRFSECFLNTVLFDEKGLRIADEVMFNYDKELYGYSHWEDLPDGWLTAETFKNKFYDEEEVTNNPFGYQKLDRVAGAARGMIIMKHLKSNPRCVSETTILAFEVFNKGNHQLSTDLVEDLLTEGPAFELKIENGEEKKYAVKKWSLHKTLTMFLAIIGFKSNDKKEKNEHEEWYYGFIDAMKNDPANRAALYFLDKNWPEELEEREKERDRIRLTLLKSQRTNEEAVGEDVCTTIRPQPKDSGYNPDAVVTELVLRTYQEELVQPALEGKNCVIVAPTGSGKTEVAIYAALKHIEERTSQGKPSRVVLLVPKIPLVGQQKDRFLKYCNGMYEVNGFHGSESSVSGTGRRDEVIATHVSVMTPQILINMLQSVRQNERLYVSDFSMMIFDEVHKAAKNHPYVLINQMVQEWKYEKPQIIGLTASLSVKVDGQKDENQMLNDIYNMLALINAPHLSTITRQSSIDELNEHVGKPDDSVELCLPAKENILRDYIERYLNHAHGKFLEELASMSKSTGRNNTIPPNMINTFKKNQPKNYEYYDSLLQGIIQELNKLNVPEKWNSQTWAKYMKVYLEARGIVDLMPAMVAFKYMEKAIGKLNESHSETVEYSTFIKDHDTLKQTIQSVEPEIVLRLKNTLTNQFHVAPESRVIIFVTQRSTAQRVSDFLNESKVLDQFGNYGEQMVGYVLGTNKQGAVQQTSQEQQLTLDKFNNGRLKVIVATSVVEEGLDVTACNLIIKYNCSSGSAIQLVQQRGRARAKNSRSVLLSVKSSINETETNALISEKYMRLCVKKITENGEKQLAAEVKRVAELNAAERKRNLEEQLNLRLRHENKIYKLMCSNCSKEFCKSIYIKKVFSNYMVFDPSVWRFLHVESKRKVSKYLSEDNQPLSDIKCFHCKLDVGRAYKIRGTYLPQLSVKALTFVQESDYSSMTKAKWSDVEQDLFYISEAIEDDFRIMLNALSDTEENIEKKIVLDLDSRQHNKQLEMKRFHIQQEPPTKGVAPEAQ

DRH-1 CTD = molecular target: T3, DRH-1 CTD (Caenorhabditis elegans, UniProt G5EDI8 877-1006); assay: limited proteolysis
T3 sequence: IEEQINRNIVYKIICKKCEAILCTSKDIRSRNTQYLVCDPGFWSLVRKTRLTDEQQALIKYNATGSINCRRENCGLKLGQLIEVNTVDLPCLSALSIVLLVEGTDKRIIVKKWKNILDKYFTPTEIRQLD

RIG-I CTD = molecular target: T4, RIG-I CTD (human, UniProt O95786 802-925); assay: limited proteolysis
T4 sequence: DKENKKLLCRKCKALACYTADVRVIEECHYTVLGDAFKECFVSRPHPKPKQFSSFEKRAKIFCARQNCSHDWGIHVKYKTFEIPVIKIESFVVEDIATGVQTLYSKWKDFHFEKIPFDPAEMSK

DRH-3 full length [2] = molecular target: T2, DRH-3 full length; assay: size-exclusion chromatography; remark: listed apart in the source
DRH-3 full length [3] = molecular target: T2, DRH-3 full length; assay: HDX-MS

## GGCCGCCC (ssRNA, 5'-triphosphate) [8-nt ssRNA]
DRH-3 CTD
  binding result: binds

B1: GC30 (30-bp dsRNA) (dsRNA)
RNA 1: GGCGCGCGCGCGCGCGCGCGCGCGCGCGCGCC
RNA 2: B1 RNA 1
modifications: 5'-triphosphate on both strands
DRH-3 full length [1]
  binding result: binds

B2: R1 / 12-mer 5'-ppp dsRNA (dsRNA)
RNA 1: GGCGCGCGCGCC
RNA 2: GGCGCGCGCGCC
modifications: 5'-triphosphate on both strands
DRH-1 CTD
  binding result: binds
RIG-I CTD
  binding result: binds
DRH-3 CTD
  binding result: binds

B3: Hairpin 30 (structured_RNA)
RNA: GGACGUACGUACGUGCACGUACGUACGUGCUUCGGCACGUACGUACGUGCACGUACGUACGUCC
modifications: 5'-triphosphate
DRH-3 full length [2]
  binding result: binds

## GGACGUACGUUUCGACGUACGUCC (structured_RNA, 5'-triphosphate) [3p10L (SLR10)]
DRH-3 full length [3]
  binding result: binds
